Among the data in US20120135923A1 (IPSEN PHARMA S A S, published 2012) are Ki values, retold here.

To fix the notation:
B1: Ac-c(Cys-Glu-His-D-2-Nal-Arg-2-Nal-Ala-Cys)-Pro-Pro-Lys-Asp-β-Ala-Tyr-Gly-Arg-Lys-Lys-Arg-Arg-Gln-Arg-Arg-Arg-NH2 (peptide)
peptide: CEHXRXACPPKDXYGRKKRRQRRR
modifications: N-terminal Ac; D-2-Nal at 4; 2-Nal at 6; β-Ala at 13; disulfide Cys1-Cys8; C-terminal NH2
B2: Ac-c(Cys-Glu-His-D-2-Nal-Arg-Trp-Ala-Cys)-Pro-Pro-Lys-Asp-NH2 (peptide)
peptide: Ac-CEH[d2Nal]RWACPPKD-NH2
modifications: disulfide 1-8
SMILES: CC(=O)N[C@H]1CSSC[C@@H](C(=O)N2CCC[C@H]2C(=O)N2CCC[C@H]2C(=O)N[C@@H](CCCCN)C(=O)N[C@@H](CC(=O)O)C(N)=O)NC(=O)[C@H](C)NC(=O)[C@H](Cc2c[nH]c3ccccc23)NC(=O)[C@H](CCCNC(=N)N)NC(=O)[C@@H](Cc2ccc3ccccc3c2)NC(=O)[C@H](Cc2c[nH]cn2)NC(=O)[C@H](CCC(=O)O)NC1=O
B3: Ac-Nle-c(Cys-D-Ala-His-D-Phe-Arg-Trp-Cys)-Doc-Tyr-Gly-Arg-Lys-Lys-Arg-Arg-Gln-Arg-Arg-Arg-NH2 (peptide)
peptide: XCAHFRWCXYGRKKRRQRRR
modifications: N-terminal Ac; Nle at 1; D-Ala at 3; D-Phe at 5; Doc at 9; disulfide Cys2-Cys8; C-terminal NH2
B4: c[Hydantoin(C(O)-(Asp-Apc))-D-2-Nal-Arg-Trp-Lys]-NH2 (peptide)
peptide: D[Apc][d2Nal]RWK-NH2
modifications: lactam 1-6; reading uncertain; also: hydantoin ring: N-terminal N of Asp1 and backbone N of residue 2 bridged by one C(O), bridge at N via C(O), other end not in the chain, printed as c[Hydantoin(C(O)-(Asp-Apc))-D-2-Nal-Arg-Trp-Lys]-NH2
B5: c[Hydantoin(C(O)-(Asp-A5c))-D-2-Nal-Arg-Trp-Lys]-NH2 (peptide)
peptide: D[Ac5c][d2Nal]RWK-NH2
modifications: lactam 1-6; also: hydantoin ring: N-terminal N of Asp1 and backbone N of residue 2 bridged by one C(O), bridge at N via C(O), other end not in the chain

Bridge positions count the residues as written; N and C are the ends. Square brackets hold non-standard residues; d marks the D form. Ends that are not written are not given here. 1Nal = N[C@@H](Cc1cccc2ccccc12)C(=O)O; 2Nal = N[C@@H](Cc1ccc2ccccc2c1)C(=O)O; d2Nal = N[C@H](Cc1ccc2ccccc2c1)C(=O)O; Bta = N[C@@H](Cc1csc2ccccc12)C(=O)O; Ac5c = NC1(C(=O)O)CCCC1; Apc = not defined here; βAla = NCCC(=O)O

T1 sequence (P41968 whole entry): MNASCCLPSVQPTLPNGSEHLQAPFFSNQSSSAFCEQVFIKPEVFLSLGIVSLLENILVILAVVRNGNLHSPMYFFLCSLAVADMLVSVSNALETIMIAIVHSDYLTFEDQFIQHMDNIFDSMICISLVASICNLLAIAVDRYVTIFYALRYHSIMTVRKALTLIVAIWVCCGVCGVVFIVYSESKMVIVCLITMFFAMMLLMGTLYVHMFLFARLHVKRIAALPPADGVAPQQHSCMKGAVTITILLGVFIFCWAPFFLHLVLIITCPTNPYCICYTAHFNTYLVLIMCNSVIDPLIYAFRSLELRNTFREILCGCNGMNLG
T2 sequence (Q01726 whole entry): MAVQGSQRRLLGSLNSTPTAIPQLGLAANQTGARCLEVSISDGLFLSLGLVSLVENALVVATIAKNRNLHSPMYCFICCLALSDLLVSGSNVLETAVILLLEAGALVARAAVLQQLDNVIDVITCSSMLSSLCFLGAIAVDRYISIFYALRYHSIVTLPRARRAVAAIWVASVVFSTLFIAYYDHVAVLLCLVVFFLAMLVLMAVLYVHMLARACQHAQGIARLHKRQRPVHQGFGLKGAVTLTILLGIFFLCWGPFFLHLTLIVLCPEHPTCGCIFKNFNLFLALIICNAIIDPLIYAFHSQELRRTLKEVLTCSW
T4 sequence (P33032 whole entry): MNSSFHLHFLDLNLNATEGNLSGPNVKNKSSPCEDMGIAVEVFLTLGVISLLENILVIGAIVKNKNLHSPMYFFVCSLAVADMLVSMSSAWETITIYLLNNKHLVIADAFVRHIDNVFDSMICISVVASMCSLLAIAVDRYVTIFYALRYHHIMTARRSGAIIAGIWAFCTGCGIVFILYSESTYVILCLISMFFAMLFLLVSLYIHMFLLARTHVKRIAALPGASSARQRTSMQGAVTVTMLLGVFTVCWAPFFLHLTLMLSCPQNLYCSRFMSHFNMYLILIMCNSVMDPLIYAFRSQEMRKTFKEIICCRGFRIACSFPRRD

The first experiment concerns the target T1, human melanocortin receptor subtype 3 (hMC3-R) (human, UniProt P41968 1-323).
T1 construct: whole, on cells; membranes of CHO-K1 cells
Kind of experiment: [125I]-NDP-α-MSH competition, membranes. The method, then: (§1) Cellular membranes used for the in vitro receptor binding assays were obtained from transgenic CHO-K1 cells stably expressing hMC-R receptor subtypes 1, 3, 4 or 5. […] The pellets were resuspended in the same buffer and centrifuged at 50,000 g for 10 minutes at approximately 4° C. The washed pellets containing the cellular membranes were stored at approximately −80° C.
(§2) Competitive inhibition of [¹²⁵I](Tyr²)-(Nle⁴-D-Phe⁷)α-MSH ([¹²⁵I]-NDP-α-MSH, Amersham Biosciences®) binding was carried out in polypropylene 96 well plates. Cell membranes (1-10 μg protein/well) prepared as described above were incubated in 50 mM Tris-HCl at pH 7.4 containing 0.2% bovine serum albumin (BSA), 5 mM MgCl₂, 1 mM CaCl₂ and 0.1 mg/mL bacitracin, with increasing concentrations of the test compound and 0.1-0.3 nM […] for approximately 90-120 minutes at approximately 37° C. Bound [¹²⁵I]-NDP-α-MSH ligand was separated from free [¹²⁵I]-NDP-α-MSH by filtration through GF/C glass fiber filter plates (Unifilter®; Packard) presoaked with 0.1% (w/v) polyethylenimine (PEI), using a Packard Filtermate® harvester. Filters were washed three times with 50 mM Tris-HCl at pH 7.4 at a temperature of approximately 0-4° C. and then assayed for radioactivity using a Packard Topcount® scintillation counter. Binding data were analyzed by computer-assisted non-linear regression analysis (XL fit; IDBS).
What is called Ki is a measure of affinity in units of concentration, obtained from inhibition or displacement. On to B1, for which the Ki worked out at 0.59 nM.
On to Ac-CEH[d2Nal]R[2Nal]ACPPKD[βAla]YGRRKRRQRRR-NH2 (disulfide 1-8), for which the affinity corresponds to a Ki of 1.12 nM.
On to Ac-CEH[d2Nal]R[1Nal]ACPPKD[βAla]YGRKRRRQRRR-NH2 (disulfide 1-8), for which affinity was put at a Ki of 1.61 nM.
Regarding Ac-CEH[d2Nal]R[Bta]ACPPKD[βAla]YGRKRRRQRRR-NH2 (disulfide 1-8) [Ac-c(Cys-Glu-His-D-2-Nal-Arg-Bal-Ala-Cys)-Pro-Pro-Lys-Asp-β-[…]NH2], the affinity corresponds to a Ki of 1.12 nM.
Regarding Ac-CEH[d2Nal]R[2Nal]ACPPKD[βAla]RRRRRRQRRR-NH2 (disulfide 1-8), affinity was put at a Ki of 2.26 nM.
B2 had a Ki of 9 nM.
In turn, B3 returned a Ki of 0.699 nM.
For B4, the Ki came to 2760 nM.
On the same count and under the same terms, with Ac-CEH[d2Nal]R[1Nal]ACPPKD[βAla]RKRRRQRRR-NH2 (disulfide 1-8) the figure was 3.99 nM; with B5, 2390 nM.

A further experiment concerns the target T2, human melanocortin receptor subtype 1 (hMC1-R) (human, UniProt Q01726 1-317).
T2 construct: whole, on cells; membranes of CHO-K1 cells
Kind of experiment: [125I]-NDP-α-MSH competition, membranes. The method, then:
as §1, §2
B1 had a Ki of 1.74 nM.
Molecule Ac-CEH[d2Nal]R[1Nal]ACPPKD[βAla]YGRKRRRQRRR-NH2 (disulfide 1-8) registered a Ki of 1.5 nM.
On to Ac-CEH[d2Nal]R[Bta]ACPPKD[βAla]YGRKRRRQRRR-NH2 (disulfide 1-8) [Ac-c(Cys-Glu-His-D-2-Nal-Arg-Bal-Ala-Cys)-Pro-Pro-Lys-Asp-β-[…]NH2], for which affinity was put at a Ki of 2.14 nM.
Ac-CEH[d2Nal]R[2Nal]ACPPKD[βAla]RRRRRRQRRR-NH2 (disulfide 1-8) had a Ki of 3.65 nM.
The molecule B2 had a Ki of 49.9 nM.
Still for that read-out and setting: next, B4: 1280 nM; Ac-CEH[d2Nal]R[1Nal]ACPPKD[βAla]RKRRRQRRR-NH2 (disulfide 1-8): 2.12 nM.
As to B5, affinity was put at a Ki of 9940 nM.

The target in the next experiment is T3, human melanocortin receptor subtype 4 (hMC4-R) (human, UniProt P32245 1-332).
T3 construct: whole, on cells; membranes of CHO-K1 cells
T3 sequence (P32245 whole entry): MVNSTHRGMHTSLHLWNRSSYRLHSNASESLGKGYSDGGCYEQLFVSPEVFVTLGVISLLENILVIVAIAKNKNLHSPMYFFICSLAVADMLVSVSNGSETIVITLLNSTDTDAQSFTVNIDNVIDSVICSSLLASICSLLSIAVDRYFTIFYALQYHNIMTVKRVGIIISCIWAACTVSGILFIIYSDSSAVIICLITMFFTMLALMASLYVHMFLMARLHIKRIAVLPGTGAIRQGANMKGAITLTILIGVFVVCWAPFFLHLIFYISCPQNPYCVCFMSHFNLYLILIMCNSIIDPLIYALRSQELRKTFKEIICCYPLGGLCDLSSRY
Kind of experiment: [125I]-NDP-α-MSH competition, membranes. The method, then:
as §1, §2
Molecule B1 had a Ki of 0.17 nM.
Consider Ac-CEH[d2Nal]R[2Nal]ACPPKD[βAla]YGRRKRRQRRR-NH2 (disulfide 1-8), for which the Ki was 0.223 nM.
Ac-CEH[d2Nal]R[1Nal]ACPPKD[βAla]YGRKRRRQRRR-NH2 (disulfide 1-8) gave a Ki of 0.301 nM.
Ac-CEH[d2Nal]R[Bta]ACPPKD[βAla]YGRKRRRQRRR-NH2 (disulfide 1-8) [Ac-c(Cys-Glu-His-D-2-Nal-Arg-Bal-Ala-Cys)-Pro-Pro-Lys-Asp-β-[…]NH2] came in with a Ki of 0.624 nM.
The molecule Ac-CEH[d2Nal]R[2Nal]ACPPKD[βAla]RRRRRRQRRR-NH2 (disulfide 1-8) gave an inhibitory constant (Ki) of 0.261 nM.
Consider B2, for which the Ki stood at 0.569 nM.
As for B3, the Ki stood at 0.596 nM.
Turning to B4, affinity was put at a Ki of 266 nM.
B5 came in with an inhibition constant Ki of 44.6 nM.

Another experiment addresses T4, human melanocortin receptor subtype 5 (hMC5-R) (human, UniProt P33032 1-325).
T4 construct: whole, on cells; membranes of CHO-K1 cells
Kind of experiment: [125I]-NDP-α-MSH competition, membranes. The method, then: as §1, §2
Consider B1, for which the affinity corresponds to a Ki of 4.38 nM.
With Ac-CEH[d2Nal]R[2Nal]ACPPKD[βAla]YGRRKRRQRRR-NH2 (disulfide 1-8), the inhibitory constant (Ki) amounted to 15.3 nM.
Molecule B2 came in with a Ki of 218 nM.
The same measure, in the same setting: next, Ac-CEH[d2Nal]R[1Nal]ACPPKD[βAla]RKRRRQRRR-NH2 (disulfide 1-8): 27.5 nM.
